B1: TPR t1 (parent)
chain: GACCAAUCUGCCCUCAGAGCUCGAGAACAUCUUCGGAUGCAGAGGAGGCAGGCUUCGGUGGCGCGAUAGCGCCAACGUCCUCAACCUCCAAUGCAUCCCACCACAUGAUGAUGCCUGAAGAGCCUUGGUUUUUUG

The data set covers variants of B1. Briefly: polymerase ribozyme fitness, log enrichment relative to wild type (log ratio); higher = more active; in vitro selection for triplet polymerase activity. The essentials:
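Fitness measures genotype enrichment against wild-type enrichment on a logarithmic scale, with inverse-variance-weighted averaging of replicates. The logarithm is base 2, and genotypes were kept only with ≥10 input reads and ≥1 read per output in Illumina sequencing. The sequenced libraries came from one triplicate in vitro selection round, including frozen incubation at −7 °C, of PCR-built, transcribed mutant libraries of each subunit of a heterodimeric triplet polymerase ribozyme.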
For the variant A37U A74C C88G G110A, the “polymerase ribozyme fitness (log ratio)” value was -3.27. In the case of A37G C56G U96C, the “polymerase ribozyme fitness (log ratio)” value is -0.381. Consider C49U G61U C86A, for which the “polymerase ribozyme fitness (log ratio)” value is -1.79. With C97G A103U, the “polymerase ribozyme fitness (log ratio)” value is -5.1. As to G10U G69U, the “polymerase ribozyme fitness (log ratio)” value is 0.293. Turning to G45U G110A, the “polymerase ribozyme fitness (log ratio)” value is -2.13.

Consider A18U G25C G57C C89G U92G C115U, for which the “polymerase ribozyme fitness (log ratio)” value is -5.83. As for G48U G57A G58A, the “polymerase ribozyme fitness (log ratio)” value is -0.738.

Regarding G44U C56G G61U C89A C94G G122A, the “polymerase ribozyme fitness (log ratio)” value is -4.78.

For the variant C40G G69A, the “polymerase ribozyme fitness (log ratio)” value is -3.43. On to A24U C34A U59A G63U C80A G113A, for which the “polymerase ribozyme fitness (log ratio)” value was -7.46. For C53U G63U A90C C104A A121G C123A, the “polymerase ribozyme fitness (log ratio)” value was -4.29. Consider C12U G61U A105G, for which the “polymerase ribozyme fitness (log ratio)” value was -1.62. For the variant C28G G77U, the “polymerase ribozyme fitness (log ratio)” value was -3.74.

Regarding A66U C80A, the “polymerase ribozyme fitness (log ratio)” value was -5.71. In the case of G52U A68G G77C, the “polymerase ribozyme fitness (log ratio)” value was -4.82. Then C40U G47U C53U, with -3.37. Then C22G G44U G48U G63U A91C A111U, with -6.95; and A24G G48A C64U, with -2.39; and C40A U87G, with -1.04. Then C11A G60U, with -0.589; and G60A A91C, with -1.35. In the case of C22G A68G, the “polymerase ribozyme fitness (log ratio)” value was -5.5. In the case of C64U C73U C82U, the “polymerase ribozyme fitness (log ratio)” value is -0.57. Then C13G G48U C53A U59G, with -1.72; and C8U U78A G93U C101G C104A C124U, with -3.7.

Regarding C40U G120C, the “polymerase ribozyme fitness (log ratio)” value was found to be 0.116.

Take G17A G57C: the “polymerase ribozyme fitness (log ratio)” value is -2.86. Take C12G G69U C115A: the “polymerase ribozyme fitness (log ratio)” value was determined as 0.211. As for C11G G17A G58A U106A U129A, the “polymerase ribozyme fitness (log ratio)” value was -5.54. For A37C A50C, the “polymerase ribozyme fitness (log ratio)” value was -0.281. In the case of A6G C72A, the “polymerase ribozyme fitness (log ratio)” value was found to be 0.991. Turning to G61U G77C C79U, the “polymerase ribozyme fitness (log ratio)” value is -0.442. For the variant C94U U129A, the “polymerase ribozyme fitness (log ratio)” value was -1.25. As for C53U C80U U81C G120A, the “polymerase ribozyme fitness (log ratio)” value is -3.73. For U9G C88U G93C, the “polymerase ribozyme fitness (log ratio)” value was -0.642. Turning to C15U A37G C64U, the “polymerase ribozyme fitness (log ratio)” value was -1.81. Consider A24U A83U C94U A111C G122A, for which the “polymerase ribozyme fitness (log ratio)” value is -6.94. The result for U96A A111G reads -1.84; that for G63U A121U, 0.749; that for C22U A41G C72U C124U, -3.44. As for A37C G52U C80A, the “polymerase ribozyme fitness (log ratio)” value is -4.05. For the variant G117C G127C, the “polymerase ribozyme fitness (log ratio)” value was -5.04.

With C82G C86U, the “polymerase ribozyme fitness (log ratio)” value was -0.172.

Take C4A U112A A119U C123U U125C: the “polymerase ribozyme fitness (log ratio)” value was -0.636. Then U9A G69C, with -0.589; and C8G A37G G71A, with 0.737. On to A90U U106A, for which the “polymerase ribozyme fitness (log ratio)” value is -1.76. Then C72U A105U, with -2.43. For the variant G36A C89A, the “polymerase ribozyme fitness (log ratio)” value is -2.49. Consider G69U C72G U78G U129C, for which the “polymerase ribozyme fitness (log ratio)” value is -1.86.

U9C U78C A83U A90G A121G: the “polymerase ribozyme fitness (log ratio)” value amounted to 2.5. Regarding A83C G135U, the “polymerase ribozyme fitness (log ratio)” value was -0.881. The result for C104A C124U U130A reads -3.43; that for A27G G93C C104U, -3.11. For G10U A91G C101U, the “polymerase ribozyme fitness (log ratio)” value was -0.603.

As for G57A C72A G120A, the “polymerase ribozyme fitness (log ratio)” value is -0.828. On to C88U G113C, for which the “polymerase ribozyme fitness (log ratio)” value was -2.8. Consider C12G A46G G48A C79A, for which the “polymerase ribozyme fitness (log ratio)” value is -2.27.

On to G42C G71U G117A, for which the “polymerase ribozyme fitness (log ratio)” value was -4.04. For C56U A95G C101A, the “polymerase ribozyme fitness (log ratio)” value was -1.46. With G69U C76G C85G G120U, the “polymerase ribozyme fitness (log ratio)” value was -2.87. Consider G63C G127U, for which the “polymerase ribozyme fitness (log ratio)” value is -1.97. For the variant G120U U126G U132A, the “polymerase ribozyme fitness (log ratio)” value was -0.734. In the case of C101G U112A U116A U126A G127U, the “polymerase ribozyme fitness (log ratio)” value was -2.86. As to A108G U112A, the “polymerase ribozyme fitness (log ratio)” value was -2.86. Then C28G A95U U125A, with -3.63; and C13G C15U G69A C114U, with -6.44.

In the case of C11G C13U U32C G65A G113C G120U, the “polymerase ribozyme fitness (log ratio)” value is -6.75. Then C70U C79U C124U, with 1; and U9A C22U C49A C86A, with -5.1; and G44C C53G G61A, with -0.806. Then C40U C56G, with -1.16; and G51U U106G G110U C124A, with -6.4.

C22G G39C A50G G51A C115U: the “polymerase ribozyme fitness (log ratio)” value was -5.65. Then U7A C12U G113C, with -2.14; and C12A A24G A41C A43C A46G C53G, with -4.67; and A74U U116G U133G, with -2.9.

For G45A C53G G61A C79U C98U, the “polymerase ribozyme fitness (log ratio)” value was -3.8. Then G10U C20A A50C C102A C114U, with -6.03. As for U32C G71A C73U, the “polymerase ribozyme fitness (log ratio)” value is -1.78. With A75U, the “polymerase ribozyme fitness (log ratio)” value was -0.493.

Regarding G71A C89U, the “polymerase ribozyme fitness (log ratio)” value is -0.978.
